# Test system: MS2 coat protein
# Experiment: apparent KD of MS2 coat protein; designed switch direction (-1 OFF switch, 1 ON switch): -1; higher = weaker reporter binding
# Procedure, shortened: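 Designed RNA switches were transcribed on Illumina chips by stalled E. coli RNA polymerase and titrated with SNAP-549-labelled MS2 coat protein from 0.7 or 1.5 nM, doubling to 3 µM. Step length ran from 0.8–1.5 h at the lowest concentration to 10–20 min at the highest. The apparent KD is the median over clusters for each design, from curve-fitted normalised cluster fluorescence.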
# [1] = Eterna round: R95, input ligand: microRNA oligo, concentration not stated
# [2] = Eterna round: R95, input ligand: FMN 200 uM
# [3] = Eterna round: R95, input ligand: none
# [4] = input ligand: microRNA oligo, concentration not stated
Sequence,apparent KD of MS2 coat protein (input ligand: FMN 200 uM) [µM],apparent KD of MS2 coat protein (input ligand: none) [µM],apparent KD of MS2 coat protein [1] [µM],apparent KD of MS2 coat protein [2] [µM],apparent KD of MS2 coat protein [3] [µM],apparent KD of MS2 coat protein [4] [µM]
"CACGUGUCAGGAUAUCCCGCGCGCGCUUCACCGAGAGUGCGGGAGAAGGGACAUGAGGAUCACCCAUGUCCUUC [Eternabot (L1) Solution 93] (Eterna round: R97, puzzle: Exclusion 4)",0.0128,0.0162,,,,
"CACUUACAUGAGGAUCACCCAUGUGAGGAUAUCGUGACCAGACGAGAAGUCUAUGUCACGAGAAGGUACAUGGG [Exclusion 1 (Mod 1.1 solution 97 by Eternabot)] (Eterna round: R97, puzzle: Exclusion 1)",0.0933,0.574,,,,
CAGACACAUGAGGAUCACCCAUGUGAGGAUAUGCGUACGUUGUCCGUAGGCGACGUGCGCAGAAGGCACAAAGG [JL-ex1-3.09 Eli mod] (puzzle: Exclusion 1),,,0.0527,,,
"CAGCAGAGAGGAUAUACUUGAGGAUCACCCAAGUGACACCGCCUGGUGCGAACUUGAAGUAGAAGGUUCGGCUA [Entema] (Eterna round: R97, puzzle: Exclusion 3)",0.0247,0.0197,,,,
"CAGCGAUCAGGAUAUACAUGAGGAUCACCCAUGUGUUCCAGCUAGGAAACUAGCAAAUGUAGAAGGGAUCGCUG [jl-ex3-4.00 salish99 mod] (Eterna round: R97, puzzle: Exclusion 3)",0.0322,0.346,,,,
"CAGCUGAAAGUGAGGAUAUAGACUGCCUCGGCAGUCUAGAAGGCACAUGAGGAUCACCCAUGUCUCAACAGCUG [BmEx4/1-B2] (Eterna round: R97, puzzle: Brourd's mod of Exclusion 4)",0.0702,0.0113,,,,
"CAGUACAGAGGAUAUACAUGAGGAUCACCCAUGUGUUUCAGGUACGAGAGUACCGAAUGUAGAAGGCUGUACUG [jl-ex3-4.27 salish99 mod] (Eterna round: R97, puzzle: Exclusion 3)",0.229,0.0245,,,,
"CAGUACUACAAGCUAAGGGACAUGAGGAUCACCCAUGUUCGUCUUAUUGAUCUAGGUACGCUGACGUACCUAGAUCU [JL-sv1-2.18 Brourd mod] (puzzle: Sensor v3, turn-off variant 1)",,,0.0208,0.0136,0.0138,
"CAGUACUGAGGAUAUACAUGAGGAUCACCCAUGUAUCCUAGCUAGGAAACUAGCAAAUGUAGAAGGCAGUACUG [Ex3: 818] (Eterna round: R96, puzzle: Exclusion 3)",0.747,0.0612,,,,0.0538
"CAGUACUGAGGAUAUACAUGAGGAUCACCCAUGUGAACCAGCUAGGAAACUAGCAAAAGUAGAAGGCAGUACUG [828 mod 2 m7] (Eterna round: R97, puzzle: Exclusion 3)",2.26,0.0925,,,,
"CAGUACUGAGGAUAUACAUGAGGAUCACCCAUGUGAGAAAUACUAAUGAGGUCGAUUAGUAGAAGGCAGUACUG [Mat - Exclusion 3 - Eli Mod - D32] (Eterna round: R97, puzzle: Exclusion 3)",0.255,0.0197,,,,
"CAGUACUGAGGAUAUACAUGAGGAUCACCCAUGUGCACCAGCUAGGAUACUAGCAAAAGUAGAAGGCAGUACUG [Mat - Exclusion 3 - Eli Mod - D19] (Eterna round: R97, puzzle: Exclusion 3)",0.118,0.0161,,,,
CAGUACUGAGGAUAUACAUGAGGAUCACCCAUGUGCCUUAGCUAGGAUACUAGCAUUAGUAGAAGGCAGUACUG [Fiskers Ex 3 828 mod 14] (puzzle: Exclusion 3),,,0.0142,,,
CAGUACUGAGGAUAUACAUGAGGAUCACCCAUGUGUCCCUGCUAGGAAACUAGCAAUAGUAGAAGGCAGUACUG [Fiskers Ex 3 828 mod 4] (puzzle: Exclusion 3),,,0.017,,,
CAGUACUGAGGAUAUACAUGAGGAUCACCCAUGUGUGCCAGCUAGGAAACUAGCAAAAGUAGAAGGCAGUACUG [salish99_ex3_r3_082] (puzzle: Exclusion 3),,,0.012,0.102,0.0119,
CAGUACUGAGGAUAUACAUGAGGAUCACCCAUGUGUUCCAGCUAGGAAACGAGCAAAAGUAGAAGGCAGUACUG [salish99_ex3_r3_071] (puzzle: Exclusion 3),,,0.0197,,,

Sequence,apparent KD of MS2 coat protein (input ligand: FMN 200 uM) [µM],apparent KD of MS2 coat protein (input ligand: none) [µM],apparent KD of MS2 coat protein [1] [µM],apparent KD of MS2 coat protein [2] [µM],apparent KD of MS2 coat protein [3] [µM],apparent KD of MS2 coat protein [4] [µM]
"CAGUACUGAGGAUAUACAUGAGGAUCACCCAUGUGUUCCAGCUGGGAAACUAGCAAAAGUAGAAGGCAGUACUG [salish99_ex3_r3_076] (Eterna round: R96, puzzle: Exclusion 3)",0.287,0.0218,,,,0.0214
CAGUACUGAGGAUAUACAUGAGGAUCACCCAUGUGUUCCAGCUGGGAAACUAGCAAAAGUAGAAGGCAGUACUG [salish99_ex3_r3_076] (puzzle: Exclusion 3),,,0.0273,0.422,0.0208,
"CAGUUCCAGGGAGGAUAUCCGAAAGGAAGUGUAGGAGAAGGCCCAAACUGAAAACACAUGAGGAUCACCCAUGUAGGUGUUCUC [PowerStrip EXNG 1.20] (Eterna round: R96, puzzle: Exclusion NG 1)",1.32,0.659,,,,0.656
CAUACACAUGAGGAUCACCCAUGUGAGGAUAUGCGUACGUAAUCCGUAGGAGACGUGCGCAGAAGGCGCGAGGU [Mat - Mod of JL D94] (puzzle: Exclusion 1),,,0.0387,,,
CAUACUCAAGUGAGGAUAUAGUCUCGGAUACGGAACUAGAAGGCACAUGAGGAUCACCCAUGUAGAGAGUAAAG [EX-4 Malc #28] (puzzle: Brourd's mod of Exclusion 4),,,0.0228,0.0566,0.0159,
CAUACUGAAGUUAGGAUAUUCGGACGAAUACGGAUGGAGAAGGGACAUGAGGAUCACCCAUGUAGAUAGUAAAG [EX-4 Malc #13] (puzzle: Brourd's mod of Exclusion 4),,,0.0207,0.0201,0.0198,
"CAUGAUCUUCGGAUCAUGUACAUGAGGAUCACCCAUGUGACGAGUAUAUCCUCAAACAAGCUUUUUGCUCGUCUUAU [Sensor v3 - Turn-off variant 1 - 22] (puzzle: Sensor v3, turn-off variant 1)",,,0.417,0.299,0.327,
"CAUGGAUGUGAGCCGCAUUACAUGAGGAUCACCCAUGUCAACAAGCUUUUUGCUUGUCUUACGCGGCGGCAUCAAAA [Geonso] (puzzle: Sensor v3, turn-off variant 1)",,,0.00986,0.012,0.0103,
"CAUGGAUGUGAGCCGCAUUACAUGAGGAUCACCCAUGUCAACAAGCUUUUUGCUUGUCUUACGCGGCGGCAUCUAAA [Abebies] (puzzle: Sensor v3, turn-off variant 1)",,,0.00844,0.0113,0.0103,
"CAUGUCCAACGAGGAUAUGGGACAGGAGGUGUACCAGAAGGCGUACGGACAUGAGGAUCACCCAUGUCGCGCGGUGCGAUGUGG [15th something] (Eterna round: R96, puzzle: Exclusion NG 1)",0.0989,0.0628,,,,0.0398
CAUGUGUAAGGAUAUGACAAUGGUAUCGAAAGAUACCAUUGUCAGAAGGUACAUGAGGAUCACCCAUGUGGAUC [Ex4-3: 18] (puzzle: Exclusion 4),,,0.199,,,
"CAUUAGCAAGCGAGAUCCCACAUGAGGAUCACCCAUGUGCUCGUCUUAUAAGGUACUGUGACGAUAGUCACGGUACC [Mat - Sensor, turn-off var - Eli Mod - D41] (Eterna round: R97, puzzle: Sensor, turn-off variant 1)",0.0171,0.0143,,,,
"CAUUGUUAUCGAGGAUAUCGUAUUGAGAUUCUACGAGAAGGCGGACUAAACAUGAGGAUCACCCAUGUGGGACGGAUGCUUGGG [Ex NG1 #31] (Eterna round: R96, puzzle: Exclusion NG 1)",0.0307,0.0281,,,,0.0258
CAUUUGUGAGGAUAUCAGGUGUGCUAGCGUACUGGUACAUCUGAGAAGGCACAUGAGGAUCACCCAUGUUCCUU [Mat - Exclusion 4 - Mod of JL - D36] (puzzle: Exclusion 4),,,0.0128,,,
"CCAAAGCGAGGAUAUACUUGCGACCCAAGCGUGGAAGACAUACUUGAGGAUCACCCAAGUAGAAGGCGCGCCAA [Dibixela] (Eterna round: R97, puzzle: Exclusion 2)",0.145,0.092,,,,
